Here are results for 6 molecules from US20170015742A1 (published 2017).

B1: CODV021 (bispecific antibody, human IgG1, kappa, L234A L235A)
heavy: EVQLVQSGSELKKPGASVKVSCKASGYTFTNYGMYWVRQAPGQGLEWMGWINTETGKPTYADDFKGRFVFSLDTSVSTAYLQISSLKAEDTAVYYCARTNYYYRSYIFYFDYWGQGTMVTVSSGGGGSGGGEFVLTQSPGTLSLSPGERATLSCERSSGDIGESYVSWYQQKPGQAPRLVIYADDQRPSGIPDRFSGSGSGTDFTLTISRLEPEDFAVYYCQSYDINIDIVFGGGTKVEIKGGGSGASTKGPSVFPLAPSSKSTSGGTAALGCLVKDYFPEPVTVSWNSGALTSGVHTFPAVLQSSGLYSLSSVVTVPSSSLGTQTYICNVNHKPSNTKVDKKVEPKSCDKTHTCPPCPAPEAAGGPSVFLFPPKPKDTLMISRTPEVTCVVVDVSHEDPEVKFNWYVDGVEVHNAKTKPREEQYNSTYRVVSVLTVLHQDWLNGKEYKCKVSNKALPAPIEKTISKAKGQPREPQVYTLPPSREEMTKNQVSLTCLVKGFYPSDIAVEWESNGQPENNYKTTPPVLDSDGSFFLYSKLTVDKSRWQQGNVFSCSVMHEALHNAYTQKSLSLSPGK
light: EVTLRESGPALVKPTQTLTLTCTFSGFSLSTYGMGVGWIRQPPGKALEWLANIWWDDDKYYNPSLKNRLTISKDTSKNQVVLTMTNMDPVDTATYYCARIESIGTTYSFDYWGQGTMVTVSSGGGGSGGGDTVLTQSPATLSLSPGERATLSCRASESVSTHMHWYQQKPGQAPRLLIYGASNLESGVPARFSGSGSGTDFTLTISSLEPEDFAVYFCQQSWNDPFTFGQGTKLEIKGGSRTVAAPSVFIFPPSDEQLKSGTASVVCLLNNFYPREAKVQWKVDNALQSGNSQESVTEQDSKDSTYSLSSTLTLSKADYEKHKVYACEVTHQGLSSPVTKSFNRGEC
notes: Anti-human VEGF-A/anti-human PDGF-BB cross-over DVD-Ig (CO-DVD-Ig); also called PR-1577053
B2: CODV016 (bispecific antibody, human IgG1, kappa, L234A L235A)
heavy: B1 heavy with E163D
light: EVTLRESGPALVKPTQTLTLTCTFSGFSLSTYGMGVGWIRQPPGKALEWLANIWWDDDKYYNPSLKNRLTISKDTSKNQVVLTMTNMDPVDTATYYCARIESIGTTYSFDYWGQGTMVTVSSGGGGSDTVLTQSPATLSLSPGERATLSCRASESVSTHMHWYQQKPGQAPRLLIYGASNLESGVPARFSGSGSGTDFTLTISSLEPEDFAVYFCQQSWNDPFTFGQGTKLEIKGGSRTVAAPSVFIFPPSDEQLKSGTASVVCLLNNFYPREAKVQWKVDNALQSGNSQESVTEQDSKDSTYSLSSTLTLSKADYEKHKVYACEVTHQGLSSPVTKSFNRGEC
notes: Anti-human VEGF-A/anti-human PDGF-BB cross-over DVD-Ig (CO-DVD-Ig); also called PR-1571828
B3: CODV020 (bispecific antibody, human IgG1, kappa, L234A L235A)
heavy: EFVLTQSPGTLSLSPGERATLSCERSSGDIGDSYVSWYQQKPGQAPRLVIYADDQRPSGIPDRFSGSGSGTDFTLTISRLEPEDFAVYYCQSYDINIDIVFGGGTKVEIKGGGSGGGGEVQLVQSGSELKKPGASVKVSCKASGYTFTNYGMYWVRQAPGQGLEWMGWINTETGKPTYADDFKGRFVFSLDTSVSTAYLQISSLKAEDTAVYYCARTNYYYRSYIFYFDYWGQGTMVTVSSLGGCGGGSASTKGPSVFPLAPSSKSTSGGTAALGCLVKDYFPEPVTVSWNSGALTSGVHTFPAVLQSSGLYSLSSVVTVPSSSLGTQTYICNVNHKPSNTKVDKKVEPKSCDKTHTCPPCPAPEAAGGPSVFLFPPKPKDTLMISRTPEVTCVVVDVSHEDPEVKFNWYVDGVEVHNAKTKPREEQYNSTYRVVSVLTVLHQDWLNGKEYKCKVSNKALPAPIEKTISKAKGQPREPQVYTLPPSREEMTKNQVSLTCLVKGFYPSDIAVEWESNGQPENNYKTTPPVLDSDGSFFLYSKLTVDKSRWQQGNVFSCSVMHEALHNAYTQKSLSLSPGK
light: DTVLTQSPATLSLSPGERATLSCRASESVSTHMHWYQQKPGQAPRLLIYGASNLESGVPARFSGSGSGTDFTLTISSLEPEDFAVYFCQQSWNDPFTFGQGTKLEIKGGGSGGGGEVTLRESGPALVKPTQTLTLTCTFSGFSLSTYGMGVGWIRQPPGKALEWLANIWWDDDKYYNPSLKNRLTISKDTSKNQVVLTMTNMDPVDTATYYCARIESIGTTYSFDYWGQGTMVTVSSLGGCGGGSRTVAAPSVFIFPPSDEQLKSGTASVVCLLNNFYPREAKVQWKVDNALQSGNSQESVTEQDSKDSTYSLSSTLTLSKADYEKHKVYACEVTHQGLSSPVTKSFNRGEC
notes: Anti-human VEGF-A/anti-human PDGF-BB cross-over DVD-Ig (CO-DVD-Ig); also called PR-1571836
B4: CODV019 (bispecific antibody, human IgG1, kappa, L234A L235A)
heavy: DTVLTQSPATLSLSPGERATLSCRASESVSTHMHWYQQKPGQAPRLLIYGASNLESGVPARFSGSGSGTDFTLTISSLEPEDFAVYFCQQSWNDPFTFGQGTKLEIKGGGSGGGGEVTLRESGPALVKPTQTLTLTCTFSGFSLSTYGMGVGWIRQPPGKALEWLANIWWDDDKYYNPSLKNRLTISKDTSKNQVVLTMTNMDPVDTATYYCARIESIGTTYSFDYWGQGTMVTVSSLGGCGGGSASTKGPSVFPLAPSSKSTSGGTAALGCLVKDYFPEPVTVSWNSGALTSGVHTFPAVLQSSGLYSLSSVVTVPSSSLGTQTYICNVNHKPSNTKVDKKVEPKSCDKTHTCPPCPAPEAAGGPSVFLFPPKPKDTLMISRTPEVTCVVVDVSHEDPEVKFNWYVDGVEVHNAKTKPREEQYNSTYRVVSVLTVLHQDWLNGKEYKCKVSNKALPAPIEKTISKAKGQPREPQVYTLPPSREEMTKNQVSLTCLVKGFYPSDIAVEWESNGQPENNYKTTPPVLDSDGSFFLYSKLTVDKSRWQQGNVFSCSVMHEALHNAYTQKSLSLSPGK
light: EFVLTQSPGTLSLSPGERATLSCERSSGDIGDSYVSWYQQKPGQAPRLVIYADDQRPSGIPDRFSGSGSGTDFTLTISRLEPEDFAVYYCQSYDINIDIVFGGGTKVEIKGGGSGGGGEVQLVQSGSELKKPGASVKVSCKASGYTFTNYGMYWVRQAPGQGLEWMGWINTETGKPTYADDFKGRFVFSLDTSVSTAYLQISSLKAEDTAVYYCARTNYYYRSYIFYFDYWGQGTMVTVSSLGGCGGGSRTVAAPSVFIFPPSDEQLKSGTASVVCLLNNFYPREAKVQWKVDNALQSGNSQESVTEQDSKDSTYSLSSTLTLSKADYEKHKVYACEVTHQGLSSPVTKSFNRGEC
notes: Anti-human VEGF-A/anti-human PDGF-BB cross-over DVD-Ig (CO-DVD-Ig); also called PR-1571832
B5: CODV018 (bispecific antibody, human IgG1, kappa, L234A L235A)
heavy: EFVLTQSPGTLSLSPGERATLSCERSSGDIGDSYVSWYQQKPGQAPRLVIYADDQRPSGIPDRFSGSGSGTDFTLTISRLEPEDFAVYYCQSYDINIDIVFGGGTKVEIKGGGSGGGDTVLTQSPATLSLSPGERATLSCRASESVSTHMHWYQQKPGQAPRLLIYGASNLESGVPARFSGSGSGTDFTLTISSLEPEDFAVYFCQQSWNDPFTFGQGTKLEIKGGGSGASTKGPSVFPLAPSSKSTSGGTAALGCLVKDYFPEPVTVSWNSGALTSGVHTFPAVLQSSGLYSLSSVVTVPSSSLGTQTYICNVNHKPSNTKVDKKVEPKSCDKTHTCPPCPAPEAAGGPSVFLFPPKPKDTLMISRTPEVTCVVVDVSHEDPEVKFNWYVDGVEVHNAKTKPREEQYNSTYRVVSVLTVLHQDWLNGKEYKCKVSNKALPAPIEKTISKAKGQPREPQVYTLPPSREEMTKNQVSLTCLVKGFYPSDIAVEWESNGQPENNYKTTPPVLDSDGSFFLYSKLTVDKSRWQQGNVFSCSVMHEALHNAYTQKSLSLSPGK
light: EVQLVQSGSELKKPGASVKVSCKASGYTFTNYGMYWVRQAPGQGLEWMGWINTETGKPTYADDFKGRFVFSLDTSVSTAYLQISSLKAEDTAVYYCARTNYYYRSYIFYFDYWGQGTMVTVSSGEVTLRESGPALVKPTQTLTLTCTFSGFSLSTYGMGVGWIRQPPGKALEWLANIWWDDDKYYNPSLKNRLTISKDTSKNQVVLTMTNMDPVDTATYYCARIESIGTTYSFDYWGQGTMVTVSSGGRTVAAPSVFIFPPSDEQLKSGTASVVCLLNNFYPREAKVQWKVDNALQSGNSQESVTEQDSKDSTYSLSSTLTLSKADYEKHKVYACEVTHQGLSSPVTKSFNRGEC
notes: Anti-human VEGF-A/anti-human PDGF-BB cross-over DVD-Ig (CO-DVD-Ig); also called PR-1571831
B6: CODV017 (bispecific antibody, human IgG1, kappa, L234A L235A)
heavy: DTVLTQSPATLSLSPGERATLSCRASESVSTHMHWYQQKPGQAPRLLIYGASNLESGVPARFSGSGSGTDFTLTISSLEPEDFAVYFCQQSWNDPFTFGQGTKLEIKGGGSGGGEFVLTQSPGTLSLSPGERATLSCERSSGDIGDSYVSWYQQKPGQAPRLVIYADDQRPSGIPDRFSGSGSGTDFTLTISRLEPEDFAVYYCQSYDINIDIVFGGGTKVEIKGGGSGASTKGPSVFPLAPSSKSTSGGTAALGCLVKDYFPEPVTVSWNSGALTSGVHTFPAVLQSSGLYSLSSVVTVPSSSLGTQTYICNVNHKPSNTKVDKKVEPKSCDKTHTCPPCPAPEAAGGPSVFLFPPKPKDTLMISRTPEVTCVVVDVSHEDPEVKFNWYVDGVEVHNAKTKPREEQYNSTYRVVSVLTVLHQDWLNGKEYKCKVSNKALPAPIEKTISKAKGQPREPQVYTLPPSREEMTKNQVSLTCLVKGFYPSDIAVEWESNGQPENNYKTTPPVLDSDGSFFLYSKLTVDKSRWQQGNVFSCSVMHEALHNAYTQKSLSLSPGK
light: EVTLRESGPALVKPTQTLTLTCTFSGFSLSTYGMGVGWIRQPPGKALEWLANIWWDDDKYYNPSLKNRLTISKDTSKNQVVLTMTNMDPVDTATYYCARIESIGTTYSFDYWGQGTMVTVSSGEVQLVQSGSELKKPGASVKVSCKASGYTFTNYGMYWVRQAPGQGLEWMGWINTETGKPTYADDFKGRFVFSLDTSVSTAYLQISSLKAEDTAVYYCARTNYYYRSYIFYFDYWGQGTMVTVSSGGRTVAAPSVFIFPPSDEQLKSGTASVVCLLNNFYPREAKVQWKVDNALQSGNSQESVTEQDSKDSTYSLSSTLTLSKADYEKHKVYACEVTHQGLSSPVTKSFNRGEC
notes: Anti-human VEGF-A/anti-human PDGF-BB cross-over DVD-Ig (CO-DVD-Ig); also called PR-1571830

Residue numbers refer to the chain shown, from its start.

T1 sequence (P15692 other isoform, or with tags, fused parts or gaps limits assumed): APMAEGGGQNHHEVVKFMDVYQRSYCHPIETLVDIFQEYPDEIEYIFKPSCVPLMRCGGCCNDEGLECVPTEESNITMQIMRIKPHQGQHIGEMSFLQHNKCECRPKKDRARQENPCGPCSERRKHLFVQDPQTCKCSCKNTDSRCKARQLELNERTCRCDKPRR

The first experiment concerns the target T1, Human VEGF-A 165 (human, UniProt P15692 207-395).
T1 construct: also called hVEGF165
In words: SPR (Biacore), method of Example 1.1. The protocol: (§1) Unreacted moieties on the biosensor surface were blocked with ethanolamine. For kinetic analysis, rate equations derived from the 1:1 Langmuir binding model were fitted simultaneously to multiple antigen injections (using global fit analysis) with the use of Scrubber 2 (BioLogic Software), Biacore Biaevaluation 4.0.1 software or Biacore T100 Evaluation software. Purified antibodies or DVD-Ig molecules were diluted in running buffer for capture across goat anti-human Fc reaction surfaces. Antibodies or DVD-Ig molecules to be captured as a ligand (1 μg/ml) were injected over reaction matrices at a flow rate of 10 μl/minute. During the assay, all measurements were referenced against the capture surface alone (i.e., with no captured antibody or DVD-Ig molecule). […] The equilibrium dissociation constant KD (M) of the reaction between antibodies and the target antigen was then calculated from the kinetic rate constants by the following formula: KD=Koff/Kₒₙ. Binding was recorded as a function of time and kinetic rate constants were calculated. In this assay, on-rates as fast as 10⁶M⁻¹s⁻¹ and off-rates as slow as 10⁻⁶ s⁻¹ could be measured.
For B1, the equilibrium dissociation constant (Kd) is 0.018 nM and the kon amounted to 3.8e+06 M⁻¹ s⁻¹.
For B2 the same measures were 0.02 nM and 2.9e+06 M⁻¹ s⁻¹.
As to B3, binding was put at a Kd of 0.033 nM and the kon amounted to 3.1e+06 M⁻¹ s⁻¹.
For B4 the same measures were 0.05 nM and 2.9e+06 M⁻¹ s⁻¹.
B5 yielded a dissociation constant Kd of 31 nM.
Same read-out and setting: in the case of B6 it was 57 nM.

The target of another experiment is T2, Human PDGF-BB (human, UniProt P01127 82-190).
T2 construct: also called hPDGF-BB
T2 sequence (P01127 82-190 limits assumed): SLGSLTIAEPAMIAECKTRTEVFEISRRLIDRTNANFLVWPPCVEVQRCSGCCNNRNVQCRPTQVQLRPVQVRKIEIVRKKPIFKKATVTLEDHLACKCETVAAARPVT
Put plainly: SPR (Biacore), method of Example 1.1. The method, then: as §1
B1: the Kd was 0.0019 nM and the kon is 6.1e+07 M⁻¹ s⁻¹.
For B2 the same measures were 0.0025 nM and 4.6e+07 M⁻¹ s⁻¹.
For B3 the same measures were 0.0035 nM and 4.6e+07 M⁻¹ s⁻¹.
The corresponding values for B4 are 0.0044 nM and 3.9e+07 M⁻¹ s⁻¹.
In the case of B5, the affinity, expressed as Kd, was 0.0053 nM and the kon was found to be 3.5e+07 M⁻¹ s⁻¹.
B6: the affinity, expressed as Kd, was 0.0065 nM and the association rate constant (kon) came out at 3e+07 M⁻¹ s⁻¹.
